{"source": "patent US7176008B2", "about": "“Process for producing activated thrombin-activatable fibrinolysis inhibitor” (Merck & Co., Inc., priority 2002, dated 2007)", "molecules": {"B1": {"name": "TAFIa: activated thrombin-activatable fibrinolysis inhibitor, a basic carboxypeptidase purified from serum (protein)", "chain": "ASASYYEQYHSLNEIYSWIEFITERHPDMLTKIHIGSSFEKYPLYVLKVSGKEQAAKNAIWIDCGIHAREWISPAFCLWFIGHITQFYGIIGQYTNLLRLVDFYVMPVVNVDGYDYSWKKNRMWRKNRSFYANNHCIGTDLNRNFASKHWCEEGASSSSCSETYCGLYPESEPEVKAVASFLRRNINQIKAYISMHSYSQHIVFPYSYTRSKSKDHEELSLVASEAVRAIEKISKNTRYTHGHGSETLYLAPGGGDDWIYDLGIKYSFTIELRDTGTYGFLLPERYIKPTCREAFAAVSKIAWHVIRNV"}}, "assay": "Stability of TAFIa activity", "parameters": "species or system human", "protocol": "Pooled human plasma (30–40 mL) was diluted 10-fold with HBE buffer (10 mM HEPES, pH 7.4, 5 mM ε-aminocaproic acid). 5 mM of the reversible inhibitor ε-aminocaproic acid was added to maintain TAFIa stability during the isolation.\nThrombin, thrombomodulin and calcium chloride (final concentrations 5 nM, 2 nM and 5 mM, respectively) were added and the solution was shaken at room temperature for 30 min. The formation of serum was quenched with 10 μM FPRCK and centrifuged at 20,000×g for 30 min at 4° C. Unless otherwise mentioned, all isolation steps were performed at 4° C. The fibrin-free solution was loaded onto a heparin-sepharose column (2.5×3 cm) pre-equilibrated with HBE buffer.\nIn the presence of 5 mM ε-aminocaproic acid, TAFIa activity in serum reached a maximum at ˜5 min and was preserved >30 min at 37° C. Initial studies for formation of serum by simply adding thrombin and calcium only activated a limited amount of TAFI zymogen (<<0.5%) as determined with western blotting. Dilution of the plasma for serum preparation increased TAFI activation. A 4–5-fold increase in TAFI activation was observed if the plasma were diluted 10–20-fold. […] A maximal increase (30–35-fold) was obtained with 2 nM thrombomodulin, consistent with the fact that thrombomodulin is the cofactor for thrombin-mediated TAFI activation. […]"}
{"molecule": "B1", "values": [{"measurement": "time TAFIa activity was maintained", "setting": "4° C., ε-aminocaproic acid present during isolation", "value": "more than 3 days"}, {"measurement": "time TAFIa activity in serum was preserved", "setting": "37° C., in the presence of 5 mM ε-aminocaproic acid", "value": "> 30", "unit": "min"}]}
